From US20240150440A1 (LUMEN BIOSCIENCE, published 2024)

How the values were obtained:
[1] = target: T1, SARS-CoV-2 spike protein on pseudotyped lentivirus (Wuhan Reference Pseudovirus) (SARS-CoV-2, UniProt P0DTC2 14-1273); assay: cell-based or functional assay
[2] = target: T1, SARS-CoV-2 spike protein on pseudotyped …; assay: cell-based or functional assay; remark: listed apart in the source
[3] = target: T1, SARS-CoV-2 spike protein on pseudotyped …; assay: cell-based or functional assay; remark: listed apart in the source
[4] = target: T2, SARS-CoV-2 Alpha Variant RBD (SARS-CoV-2 Alpha variant); assay: ELISA, RBD coated
T2 construct: domain: RBD; coated on ELISA plates

[5] = target: T3, SARS-CoV-2 Delta Variant RBD (SARS-CoV-2 Delta variant); assay: ELISA, RBD coated
T3 construct: domain: RBD; coated on ELISA plates

[6] = target: T4, recombinant SARS-CoV-2 RBD with C-terminal AviTag (SARS-CoV-2, UniProt P0DTC2 319-541); assay: BLI, biotinylated RBD on streptavidin biosensors [Cont. 4]
[7] = target: T4, recombinant SARS-CoV-2 RBD with …; assay: ELISA, competition with coated ACE2-Fc for RBD [Cont. 5]
[8] = target: SARS-CoV-2 Delta Variant spike protein on pseudotyped lentivirus (SARS-CoV-2 Delta variant); assay: cell-based or functional assay
[9] = target: T1, SARS-CoV-2 spike protein on pseudotyped …; assay: cell-based or functional assay; remark: listed apart in the source
[10] = target: T5, SARS-CoV-2 Beta Variant RBD (SARS-CoV-2 Beta variant); assay: ELISA, RBD coated
T5 construct: domain: RBD; coated on ELISA plates

[11] = target: T6, SARS-CoV-2 Gamma Variant RBD (SARS-CoV-2 Gamma variant); assay: ELISA, RBD coated
T6 construct: domain: RBD; coated on ELISA plates

[12] = target: T4, recombinant SARS-CoV-2 RBD with …; assay: ELISA, competition with coated ACE2-Fc for RBD [Cont. 4]
[13] = target: T4, recombinant SARS-CoV-2 RBD with …; assay: BLI, biotinylated RBD on streptavidin biosensors; OR: over-range [Cont. 4]
[14] = target: T1, SARS-CoV-2 spike protein on pseudotyped …; assay: cell-based or functional assay; remark: listed apart in the source
[15] = target: T1, SARS-CoV-2 spike protein on pseudotyped …; assay: cell-based or functional assay; remark: listed apart in the source
[16] = target: SARS-CoV-2 Gamma Variant spike protein on pseudotyped lentivirus (SARS-CoV-2 Gamma variant); assay: cell-based or functional assay

B1: PP1100 MBP-5HVZ-PAPA-RN-14-H6 (VHH)
VHH: QVQLVESGGGLVQPGGSLRLSCAASGENFSGNLVHWFRQAPGKAREGVATVTSTGSGYYADSVKGRFTISRDNAKNTVYLQMNSLKPEDTAVYYCAAKHQKGEIPYYDWGQGTQVTVSS
notes: Form: Dimer
Pseudovirus inhibition IC50 [Cont. 8] [1]: 13.9 nM | infectivity % under 10 ug/mL VHH treatment [2]: 17.2% | Pseudovirus neutralization IC50 [3]: 6.95 nM | EC50 [4]: 0.35 nM | EC50 [5]: 46.5 nM

B2: PP833 MBP-R5C-F6-H6 (VHH)
VHH: QVQLVESGGGLVQPGGSLRLSCAASGQTNSILAMHWYRQAPGKQREAVATITSGSNSTYADSVKGRFTISRDNAKNTVYLQMNSLKPEDTAVYYCAARNGKLSPKANQRLYWGQGTQVTVSS
notes: Form: Monomer
infectivity % under 10 ug/mL VHH treatment [2]: 86.2% | Kd [6]: 100 nM

B3: PP848 MBP-R5E-G2-H6 (VHH)
VHH: QVQLVESGGGLVQPGGSLRLSCAASGTIKSINAMHWFRQAPGKAREFVASIGSNGAKSYSDSVKGRFTISRDNAKNTVYLQMNSLKPEDTAVYYCTALITVAESDDYDYWGQGTQVTVSS
notes: Form: Monomer
infectivity % under 10 ug/mL VHH treatment [2]: 81.9% | IC50 [7]: 2.1 nM

B4: PP1148 MBP-5HVZ-PAPA-R5a-C5-H6 (VHH)
VHH: QVQLVESGGGLVQPGGSLRLSCAASGDIFSINALHWFRQAPGKQREEVAAITSGGSTGYADSVKGRFTISRDNAKNTVYLQMNSLKPEDTAVYYCAAQQARGGLDSDYWGQGTQVTVSS
notes: Form: Dimer
infectivity % under 10 ug/mL VHH treatment [2]: 5.95% | Pseudovirus neutralization IC50 [8]: 0.53 nM | Pseudovirus neutralization IC50 [3]: 15.7 nM | Pseudovirus inhibition IC50 [Cont. 2] [9]: 4.7 nM | EC50 [10]: 30.5 nM | EC50 [4]: 0.33 nM | EC50 [5]: 0.22 nM | EC50 [11]: 9.06 nM

B5: PP1136 MBP-4B0F-PAPA-R5a-C5-H6 (VHH)
VHH: B4 VHH
notes: Form: Heptamer
infectivity % under 10 ug/mL VHH treatment [2]: 1.53% | Pseudovirus neutralization IC50 [3]: 0.05 nM | Pseudovirus inhibition IC50 [Cont. 2] [9]: 0.35 nM

B6: PP847 MBP-R5E-D1-H6 (VHH)
VHH: QVQLVESGGGLVQPGGSLRLSCAASGFEFSTSAMHWYRQAPGKQREWVARITSGGSDNYGDSVKGRFTISRDNAKNTVYLQMNSLKPEDTAVYYCAAYVGTDNYGYDYWGQGTQVTVSS
notes: Form: Monomer
infectivity % under 10 ug/mL VHH treatment [2]: 77.1% | IC50 [7]: 2.9 nM

B7: PP1097 MBP-5HVZ-PAPA-RN-5-H6 (VHH)
VHH: QVQLVESGGGLVQPGGSLRLSCAASGSSFRILAMHWYRQAPGKNREWVAVITSNGNTYYADSVKGRFTISRDNAKNTVYLQMNSLKPEDTAVYYCNADTLDLDDGATYNYWGQGTQVTVSS
Pseudovirus inhibition IC50 [Cont. 8] [1]: 54.5 nM | infectivity % under 10 ug/mL VHH treatment [2]: 18.6% | Pseudovirus neutralization IC50 [3]: 27.3 nM | EC50 [10]: 95.4 nM | EC50 [4]: 0.3 nM | EC50 [5]: 244 nM | EC50 [11]: 58.6 nM

B8: PP831 MBP-R5C-F3-H6 (VHH)
VHH: QVQLVESGGGLVQPGGSLRLSCAASGTIPSINYTAWYRQAPGKQRELVASLTSGDNRYYTDSVKGRFTISRDNAKNTVYLQMNSLKPEDTAVYYCNAKTVGSSYRDSYNYWGQGTQVTVSS
notes: Form: Monomer
IC50 [12]: 151 nM | infectivity % under 10 ug/mL VHH treatment [2]: 81.2% | Kd [13]: ~5370 nM

B9: PP1152 MBP-5HVZ-PAPA-R5d-B6-H6 (VHH)
VHH: QVQLVESGGGLVQPGGSLRLSCAASGRILAANIVHWYRQAPGKEREGVAGITSGGGSYYADSVKGRFTISRDNAKNTVYLQMNSLKPEDTAVYYCNALGLGQSSLYRSADPYDSWGQGTQVTVSS
notes: Form: Dimer
infectivity % under 10 ug/mL VHH treatment [2]: 4.64% | Pseudovirus neutralization IC50 [3]: 3.87 nM | Pseudovirus inhibition IC50 [Cont. 4] [14]: 0.85 nM

B10: MBP-5HVZ-R5D-B6-H6 (VHH)
VHH: B9 VHH
notes: dimer
IC50 [12]: 15.7 nM | Pseudovirus inhibition IC50 [Cont. 4] [14]: 3.26 nM

B11: PP1143 MBP-5HVZ-PAPA-R2b-D5-H6 (VHH)
VHH: QVQLVESGGGLVQPGGSLRLSCAASGYADEINMVHWYRQAPGKGREFVAAIASGGSTFYADSVKGRFTISRDNAKNTVYLQMNSLKPEDTAVYYCAAIPRPSLSYAHDYAYWGQGTQVTVSS
notes: Form: Dimer
infectivity % under 10 ug/mL VHH treatment [2]: 0.09% | Pseudovirus inhibition IC50 [15]: 0.6 nM | Pseudovirus neutralization IC50 [16]: 3.13 nM | Pseudovirus neutralization IC50 [3]: 0.301 nM

B12: PP834 MBP-R5C-G2-H6 (VHH)
VHH: QVQLVESGGGLVQPGGSLRLSCAASGSATSINRMAWVRQAPGKEREWVAVIDSGGYTYYADSVKGRFTISRDNAKNTVYLQMNSLKPEDTAVYYCNAVPVTTDKTPMYQYWGQGTQVTVSS
notes: Form: Monomer
IC50 [12]: 184 nM | infectivity % under 10 ug/mL VHH treatment [2]: 89.2% | Kd [13]: ~2120 nM

B13: MBP-5HVZ-R5C-G2-H6 (VHH)
VHH: B12 VHH
notes: dimer
IC50 [12]: 121 nM | Kd [6]: 29.6 nM

B14: PP935 MBP-5HVZ-S3b-E11-H6 (VHH)
VHH: QVQLVESGGGLVQPGGSLRLSCAASGDIYSQSAMAWYRQAPGKEREFVAAITTTGSRSYKDSVKGRFTISRDNAKNTVYLQMNSLKPEDTAVYYCAAFAVRSSSVSDAYDYWGQGTQVTVSS
notes: Form: Dimer
Pseudovirus inhibition IC50 [Cont. 8] [1]: 68.4 nM | infectivity % under 10 ug/mL VHH treatment [2]: 48.9% | Pseudovirus neutralization IC50 [3]: 34.2 nM | EC50 [10]: 343 nM | EC50 [4]: 0.47 nM | EC50 [5]: 151 nM | EC50 [11]: 167 nM

B15: PP1149 MBP-5HVZ-PAPA-R5a-E5-H6 (VHH)
VHH: QVQLVESGGGLVQPGGSLRLSCAASGYDFDILRMAWFRQAPGKEREMVAAITSAESVNYEDSVKGRFTISRDNAKNTVYLQMNSLKPEDTAVYYCATYDYTDDYGYASWGQGTQVTVSS
notes: Form: Dimer
infectivity % under 10 ug/mL VHH treatment [2]: 25.5% | Pseudovirus neutralization IC50 [3]: 37.3 nM | Pseudovirus inhibition IC50 [Cont. 2] [9]: 74.7 nM | EC50 [10]: 58 nM | EC50 [4]: 3.01 nM | EC50 [11]: 134 nM

B16: PP1151 MBP-5HVZ-PAPA-R5d-B5-H6 (VHH)
VHH: QVQLVESGGGLVQPGGSLRLSCAASGSRDSIVAMHWYRQAPGKGREGVAGITSRWVTYYADSVKGRFTISRDNAKNTVYLQMNSLKPEDTAVYYCNAPVYYDTEWYDIWGQGTQVTVSS
notes: Form: Dimer
infectivity % under 10 ug/mL VHH treatment [2]: 35.6% | Pseudovirus neutralization IC50 [3]: 15.3 nM | Pseudovirus inhibition IC50 [Cont. 4] [14]: 43.7 nM

B17: MBP-5HVZ-R5D-B5-H6 (VHH)
VHH: B16 VHH
notes: dimer
IC50 [12]: 53.7 nM | Pseudovirus inhibition IC50 [Cont. 4] [14]: 3.25 nM

B18: PP837 MBP-R5D-B2-H6 (VHH)
VHH: QVQLVESGGGLVQPGGSLRLSCAASGSIWSIAFMSWYRQAPGKGREWVAAITTGNDEAYADSVKGRFTISRDNAKNTVYLQMNSLKPEDTAVYYCAANTYERTPDGRTFSYWGQGTQVTVSS
notes: Form: Monomer
IC50 [12]: 3.7 nM | infectivity % under 10 ug/mL VHH treatment [2]: 77.6% | Kd [13]: ~2350 nM
